From US20130101549A1 (Biogen, published 2013)

Key:
human HVEM-Ig [1] = molecular target: T1, human HVEM-Ig (human, UniProt Q92956 39-202); assay: FACS (HVEM column of Table 2; format not told there)
T1 construct: Expressed and purified in house; also called HVEM-Fc; Herpes virus entry mediator-Ig
T1 sequence (looked up): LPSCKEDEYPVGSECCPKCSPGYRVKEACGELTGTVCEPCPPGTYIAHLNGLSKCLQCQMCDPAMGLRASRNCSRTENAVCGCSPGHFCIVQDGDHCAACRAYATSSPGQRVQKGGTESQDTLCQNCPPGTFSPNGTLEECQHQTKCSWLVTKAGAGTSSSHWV

human HVEM-Ig [2] = molecular target: T1, human HVEM-Ig; assay: ELISA on coated HVEM-Ig
Protocol: (§1) Human and murine ErbB2-Fc were obtained from R&D Systems. Wells of 96-well plates were coated with 2 ug/ml or 0.2 ug/ml of human or murine HER2-Fc by incubation overnight at 4-8° C. with either of these six proteins (80 ul/well of a 0.2 or 2 ug/ml solution in PBS). Wells were emptied, filled completely with a solution of PBS with 1% BSA (blocking buffer) and incubated at room temperature for 1 hour. Wells were emptied, washed twice PBS containing 0.05% Tween 20 (PBST) and filled with the samples (80 ul/well of 3× dilution series of the standard and supernatants in blocking buffer) prepared in another 96-well plate. After a 2-hour incubation at room temperature, the wells were emptied, washed three times with PBST and filled with a solution of HRP-conjugated goat pAbs anti-human kappa chain (80 ul/well of a 2000-fold dilution in blocking buffer). After 1-hour incubation, the wells were emptied and filled with a solution of HRP substrate prepared freshly. The color was left to develop for 3 minutes and was stopped by addition of an equal volume of 1N H₂SO₄. Absorbance was measured at 450 nm using a Plate Reader (SpectraMax, Molecular Devices). The data was processed and graphs were created using SoftMax Pro software.
Human and murine HVEM-Ig were expressed and purified in house.

[3] = molecular target: human LTβR on tumor cells (human, UniProt P36941 31-435); assay: cell-based or functional assay
Sequence of human LTβR on tumor cells (P36941 31-435): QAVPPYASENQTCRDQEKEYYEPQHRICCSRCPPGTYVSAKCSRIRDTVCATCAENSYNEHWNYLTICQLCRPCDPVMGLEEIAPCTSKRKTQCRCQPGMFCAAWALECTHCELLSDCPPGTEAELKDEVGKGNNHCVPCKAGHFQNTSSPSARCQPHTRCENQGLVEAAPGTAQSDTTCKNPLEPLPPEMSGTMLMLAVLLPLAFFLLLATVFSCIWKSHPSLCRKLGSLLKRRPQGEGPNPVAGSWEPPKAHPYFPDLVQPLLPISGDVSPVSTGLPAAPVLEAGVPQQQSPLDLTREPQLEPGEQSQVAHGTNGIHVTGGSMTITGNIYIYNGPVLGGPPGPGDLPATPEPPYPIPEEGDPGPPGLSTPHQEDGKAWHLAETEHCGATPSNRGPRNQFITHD

human HER2-Fc [4] = molecular target: T2, human HER2-Fc (human, UniProt P04626 23-652); assay: ELISA on coated HER2-Fc
T2 construct: Bought from R&D Systems: homodimeric fusion of the HER2 extracellular domain and human IgG1 Fc; also called human ErbB2-Fc; rhErbB2-Fc; not shown: Fc fragment of human IgG1
Protocol: as §1

murine HER2-Fc [5] = molecular target: T3, murine HER2-Fc (mouse; human, UniProt P70424 23-653); assay: ELISA on coated muHER2-Fc, HRP anti-human kappa; the number is C of the printed 4-P fit (A 0.005, B 1.068, D 0.84, R^2 0.999); x axis: Fab equivalent concentration
T3 construct: extracellular domain; Bought from R&D Systems; also called murine ErbB2-Fc; not shown: Fc fragment of human IgG1
T3 sequence (P70424 23-653): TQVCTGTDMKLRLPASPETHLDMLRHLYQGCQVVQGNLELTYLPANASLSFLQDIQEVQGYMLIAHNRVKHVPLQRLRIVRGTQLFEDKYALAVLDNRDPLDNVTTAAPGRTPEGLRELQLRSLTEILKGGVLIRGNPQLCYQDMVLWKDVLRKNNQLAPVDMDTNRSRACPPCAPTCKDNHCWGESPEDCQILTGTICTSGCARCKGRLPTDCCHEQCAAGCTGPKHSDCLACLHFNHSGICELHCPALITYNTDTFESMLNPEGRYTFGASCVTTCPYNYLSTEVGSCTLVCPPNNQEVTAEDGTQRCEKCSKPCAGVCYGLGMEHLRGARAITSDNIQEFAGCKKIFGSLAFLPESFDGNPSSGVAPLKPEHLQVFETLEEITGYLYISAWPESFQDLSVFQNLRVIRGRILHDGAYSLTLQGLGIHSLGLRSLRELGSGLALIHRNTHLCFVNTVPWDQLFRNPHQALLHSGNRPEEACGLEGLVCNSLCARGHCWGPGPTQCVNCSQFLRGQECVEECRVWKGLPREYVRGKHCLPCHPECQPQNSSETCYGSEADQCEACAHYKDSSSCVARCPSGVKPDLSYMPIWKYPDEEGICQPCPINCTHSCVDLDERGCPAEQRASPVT

human LTβR-Ig [6] = molecular target: T4, human LTβR-Ig (human, UniProt P36941 31-227); assay: FACS (LTbR column of Table 2; format not told there)
T4 construct: Expressed and purified in house; also called hLTbR-Ig; human LTBR-Ig
T4 sequence (P36941 31-227): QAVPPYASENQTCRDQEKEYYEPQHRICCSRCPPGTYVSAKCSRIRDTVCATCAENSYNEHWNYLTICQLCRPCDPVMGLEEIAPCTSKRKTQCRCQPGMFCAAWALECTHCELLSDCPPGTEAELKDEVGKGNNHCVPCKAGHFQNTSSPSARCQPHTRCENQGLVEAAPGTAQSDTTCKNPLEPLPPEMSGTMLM

[7] = molecular target: T5, human HER2/ErbB2 on cells (human, UniProt P04626 23-1255); assay: FACS on HER2-expressing cells
T5 construct: whole, on cells; also called hHER2/ErbB2; wild type HER2/ErbB

human LTβR-Ig [8] = molecular target: T4, human LTβR-Ig; assay: ELISA on coated LTbR-Ig
Protocol: as §1
Human and murine LTBR-Ig were expressed and purified in house.

human HER2-Fc [9] = molecular target: T2, human HER2-Fc; assay: ELISA on coated huHER2-Fc, HRP anti-human kappa; the number is C of the printed 4-P fit (A -0.059, B 0.832, D 1.098, R^2 0.998); x axis: Fab equivalent concentration
human HVEM-Ig [10] = molecular target: T1, human HVEM-Ig; assay: Octet biolayer interferometry, receptor-Fc on anti-human Fc biosensor, culture supernatant
Protocol: (§2) Anti-human Fc-specific biosensors (Fortebio SKU 18-0001) were hydrated in OB (1×PBS supplemented with 1 mg/ml BSA, 0.05% NaN₃, and 0.02% TWEEN 20) for at least five minutes prior to assays. For each assay, the respective receptor—Fc fusion was diluted to 10 μg/ml in OB and allowed to bind to the biosensors for five minutes. The sensors were then incubated in the indicated culture supernatant for an additional five minutes, and subsequently transferred to fresh wells […].

human LTβR-Ig [11] = molecular target: T4, human LTβR-Ig; assay: as above
Protocol: as §2

human HER2-Fc [12] = molecular target: T2, human HER2-Fc; assay: as above
Protocol: as §2

human HER2-Fc [13] = molecular target: T2, human HER2-Fc; assay: ELISA on coated huHER2-Fc, HRP anti-human kappa; the number is C of the printed 4-P fit (A 0.006, B 1.142, D 0.89, R^2 1); x axis: Fab equivalent concentration
human LTBR-mIgG fusion = molecular target: T6, human LTBR-mIgG fusion; assay: sandwich ELISA after incubation at 200 ng/ml in human serum (cold or 37°C overnight): HER2-Fc on the plate, human LTBR-mIgG, HRP anti-mouse IgG; the signal needs both bindings at once
T6 construct: kept apart from m25 (human Fc); not shown: exact end of the LTBR part
T6 sequence (chain, as listed by the source limits assumed): as the sequence (P36941 31-227) above
Protocol: An ELISA assay was developed to detect LIGHT-Ab fusions after incubation with human sera. Briefly, 200 ng/mL of LIGHT-Ab fusions were incubated overnight in human serum at 37° C. The serum was assayed in sandwich ELISA as follows. HER2-Fc was immobilized to a solid surface, and was used to capture the LIGHT-Ab fusions. The serum incubated fusion proteins were added to the solid surface. Detection was effected using a human LTBR-mIgG fusion to bind to the LIGHT moiety of the fusion. Horseradish peroxidase (HRP) labeled anti-mouse IgG was used to detect bound LIGHT-Ab fusions.

murine HER2-Fc [14] = molecular target: T3, murine HER2-Fc; assay: ELISA on coated muHER2-Fc, HRP anti-human kappa; the number is C of the printed 4-P fit (A 0.008, B 1.027, D 0.896, R^2 1); x axis: Fab equivalent concentration
Protocol: as §1, with “Wells” for “Human and murine ErbB2-Fc were obtained from R&D Systems. Wells”, “coated” for “coated with 2 ug/ml or 0.2 ug/ml of human or murine HER2-Fc”, “goat antibodies against human kappa chain” for “either of these six proteins”, “5” for “0.2 or 2”
Human and murine HER2-Fc (homodimeric fusion proteins consisting of the extracellular domain of HER2 and the Fc fragment of human IgG1) were obtained from R&D Systems. […]

B1: 71F10 Fab-hLIGHT fusion with the delta 4 linker (BIIB71F10-130) (other)
heavy: EVQLLESGGGLVQPGGSLRLSCAASGFTFSSYGMVWVRQAPGKGLEWVSSISSSGGLTWYADSVKGRFTISRDNSKNTLYLQMNSLRAEDTAVYYCASPPGIAVARDYWGQGTLVTVSSASTKGPSVFPLAPSSKSTSGGTAALGCLVKDYFPEPVTVSWNSGALTSGVHTFPAVLQSSGLYSLSSVVTVPSSSLGTQTYICNVNHKPSNTKVDKKVEPKSCDKLHWRLGEMVTRLPDGPAGSWQERRSHEVNPAAHLTGANSSLTGSGGPLLWETQLGLAFLRGLSYHDGALVVTKAGYYYIYSKVQLGGVGCPLGLASTITHGLYKRTPRYPEELELLVSQQSPCGRATSSSRVWWDSSFLGGVVHLEAGEEVVVRVLDERLVRLRDGTRSYFGAFMV
light: DIQMTQSPSSLSASVGDRVTITCRASQGISNYLAWYQQKPGKVPKLLIYAASTLQSGVPSRFSGSGSGTDFTLTISSLQPEDVATYYCQKYNSALLTFGGGTKVEIKRTVAAPSVFIFPPSDEQLKSGTASVVCLLNNFYPREAKVQWKVDNALQSGNSQESVTEQDSKDSTYSLSSTLTLSKADYEKHKVYACEVTHQGLSSPVTKSFNRGEC
notes: Fab heavy chain - linker - human LIGHT extracellular part; assembles as a trimer of Fab-LIGHT units; also called pBIIB71F10-130; LIGHT fusion #130
EC50 (human HVEM-Ig [1]): 0.5 nM
EC50 (human HVEM-Ig [2]): 0.01 nM
fold difference of gene expression, treated/untreated HT29 cells (qRT-PCR): CCL2 (MCP-1) [3]: 1050 fold
fold difference of gene expression, treated/untreated HT29 cells (qRT-PCR): CCL5 (RANTES) [3]: 1220 fold
fold difference of gene expression, treated/untreated HT29 cells (qRT-PCR): CCL7 (MCP-3) [3]: -527 fold
fold difference of gene expression, treated/untreated HT29 cells (qRT-PCR): CCL21 [3]: 546 fold
fold difference of gene expression, treated/untreated HT29 cells (qRT-PCR): CCR4 [3]: 1650 fold
fold difference of gene expression, treated/untreated HT29 cells (qRT-PCR): CXCL2 [3]: 1130 fold
fold difference of gene expression, treated/untreated HT29 cells (qRT-PCR): CXCL3 [3]: 1090 fold
fold difference of gene expression, treated/untreated HT29 cells (qRT-PCR): CXCL5 (ENA-78/LIX) [3]: 1810 fold
fold difference of gene expression, treated/untreated HT29 cells (qRT-PCR): CXCL9 [3]: 675 fold
fold difference of gene expression, treated/untreated HT29 cells (qRT-PCR): CXCL10 (IP-10) [3]: 5270 fold
fold difference of gene expression, treated/untreated HT29 cells (qRT-PCR): CXCL11 (I-TAC/IP9) [3]: 1730 fold
fold difference of gene expression, treated/untreated HT29 cells (qRT-PCR): IFNA2 [3]: 193 fold
fold difference of gene expression, treated/untreated HT29 cells (qRT-PCR): IL5 [3]: 940 fold
fold difference of gene expression, treated/untreated HT29 cells (qRT-PCR): IL8 [3]: 373 fold
fold difference of gene expression, treated/untreated HT29 cells (qRT-PCR): IL10RA [3]: 3440 fold
fold difference of gene expression, treated/untreated HT29 cells (qRT-PCR): LTB [3]: 2910 fold
fold difference of gene expression, treated/untreated HT29 cells (qRT-PCR): TNF [3]: 7370 fold
EC50 (human HER2-Fc [4]): 0.05 nM
EC50 (murine HER2-Fc [5]): 0.0114 µg/mL
EC50 (human LTβR-Ig [6]): 0.2 nM
EC50 [7]: 0.5 nM
EC50 (human LTβR-Ig [8]): 0.01 nM
EC50 (human HER2-Fc [9]): 0.00955 µg/mL
koff (human HVEM-Ig [10]): 0.000122 s⁻¹
koff (human LTβR-Ig [11]): 0.000168 s⁻¹
koff (human HER2-Fc [12]): 0.000112 s⁻¹

B2: 71F10 Fab-hLIGHT fusion with the G4S delta 4 linker (BIIB71F10-131) (other)
heavy: EVQLLESGGGLVQPGGSLRLSCAASGFTFSSYGMVWVRQAPGKGLEWVSSISSSGGLTWYADSVKGRFTISRDNSKNTLYLQMNSLRAEDTAVYYCASPPGIAVARDYWGQGTLVTVSSASTKGPSVFPLAPSSKSTSGGTAALGCLVKDYFPEPVTVSWNSGALTSGVHTFPAVLQSSGLYSLSSVVTVPSSSLGTQTYICNVNHKPSNTKVDKKVEPKSCDKGGGGSLHWRLGEMVTRLPDGPAGSWQERRSHEVNPAAHLTGANSSLTGSGGPLLWETQLGLAFLRGLSYHDGALVVTKAGYYYIYSKVQLGGVGCPLGLASTITHGLYKRTPRYPEELELLVSQQSPCGRATSSSRVWWDSSFLGGVVHLEAGEEVVVRVLDERLVRLRDGTRSYFGAFMV
light: DIQMTQSPSSLSASVGDRVTITCRASQGISNYLAWYQQKPGKVPKLLIYAASTLQSGVPSRFSGSGSGTDFTLTISSLQPEDVATYYCQKYNSALLTFGGGTKVEIKRTVAAPSVFIFPPSDEQLKSGTASVVCLLNNFYPREAKVQWKVDNALQSGNSQESVTEQDSKDSTYSLSSTLTLSKADYEKHKVYACEVTHQGLSSPVTKSFNRGEC
notes: Trimer of Fab-LIGHT units; also called pBIIB71F10-131
EC50 (human HER2-Fc [13]): 0.00608 µg/mL
EC50 (human HVEM-Ig [1]): 0.5 nM
binding result (human LTBR-mIgG fusion): binds
EC50 (human HVEM-Ig [2]): 0.01 nM
EC50 (human HER2-Fc [4]): 0.05 nM
EC50 (human LTβR-Ig [6]): 0.2 nM
EC50 [7]: 0.5 nM
EC50 (human LTβR-Ig [8]): 0.01 nM
koff (human LTβR-Ig [11]): 0.000183 s⁻¹
koff (human HER2-Fc [12]): 0.000307 s⁻¹
EC50 (murine HER2-Fc [14]): 0.0139 µg/mL
